In article PMC4762649, “Tel1 and Rif2 Regulate MRX Functions in End-Tethering and Repair of DNA Double-Strand Breaks” (PLoS Biology, 2016):
Residue numbers refer to the chain shown, from its start. Blank lines part the entries; values can stand above or below the binder they belong to.

Tests used:
Conditions in all cases: both partners purified
[1] = target: T1, MR^V1269MX complex (Mre11-Rad50-V1269M-Xrs2) (S. cerevisiae, UniProt P32829 1-692; P12753 1-1312; P33301 1-854, V1269M); assay: pull-down; Flag-tagged Tel1 (50 ng) incubated with MR^V1269MX (100 ng) in the absence or presence of Rif2 (100 ng); captured on anti-Flag resin; immunoblotting
T1 construct: Mre11, S. cerevisiae; as m3; Rad50, S. cerevisiae, with V1269M; as m2; Xrs2, S. cerevisiae; as m4; also called mutant MRX complex; source: subunits overexpressed in yeast and purified, assembled and separated by gel filtration; copies: + +

Rad50-V1269M = target: T2, Rad50-V1269M (S. cerevisiae, UniProt P12753 1-1312, V1269M); assay: SEC; Rad50 (or Rad50-V1269M), Mre11 and Xrs2 incubated together 5 h on ice; assembled complex separated from unassembled proteins on a Sephacryl S-400 gel filtration column; 0-4°C
T2 construct: Allele isolated after ethyl methanesulfonate mutagenesis; also called Rad50-V1269M mutant; purified Rad50-V1269M; source: overexpressed in yeast, purified (procedure devised for the wild-type protein)
T2 sequence (looked up): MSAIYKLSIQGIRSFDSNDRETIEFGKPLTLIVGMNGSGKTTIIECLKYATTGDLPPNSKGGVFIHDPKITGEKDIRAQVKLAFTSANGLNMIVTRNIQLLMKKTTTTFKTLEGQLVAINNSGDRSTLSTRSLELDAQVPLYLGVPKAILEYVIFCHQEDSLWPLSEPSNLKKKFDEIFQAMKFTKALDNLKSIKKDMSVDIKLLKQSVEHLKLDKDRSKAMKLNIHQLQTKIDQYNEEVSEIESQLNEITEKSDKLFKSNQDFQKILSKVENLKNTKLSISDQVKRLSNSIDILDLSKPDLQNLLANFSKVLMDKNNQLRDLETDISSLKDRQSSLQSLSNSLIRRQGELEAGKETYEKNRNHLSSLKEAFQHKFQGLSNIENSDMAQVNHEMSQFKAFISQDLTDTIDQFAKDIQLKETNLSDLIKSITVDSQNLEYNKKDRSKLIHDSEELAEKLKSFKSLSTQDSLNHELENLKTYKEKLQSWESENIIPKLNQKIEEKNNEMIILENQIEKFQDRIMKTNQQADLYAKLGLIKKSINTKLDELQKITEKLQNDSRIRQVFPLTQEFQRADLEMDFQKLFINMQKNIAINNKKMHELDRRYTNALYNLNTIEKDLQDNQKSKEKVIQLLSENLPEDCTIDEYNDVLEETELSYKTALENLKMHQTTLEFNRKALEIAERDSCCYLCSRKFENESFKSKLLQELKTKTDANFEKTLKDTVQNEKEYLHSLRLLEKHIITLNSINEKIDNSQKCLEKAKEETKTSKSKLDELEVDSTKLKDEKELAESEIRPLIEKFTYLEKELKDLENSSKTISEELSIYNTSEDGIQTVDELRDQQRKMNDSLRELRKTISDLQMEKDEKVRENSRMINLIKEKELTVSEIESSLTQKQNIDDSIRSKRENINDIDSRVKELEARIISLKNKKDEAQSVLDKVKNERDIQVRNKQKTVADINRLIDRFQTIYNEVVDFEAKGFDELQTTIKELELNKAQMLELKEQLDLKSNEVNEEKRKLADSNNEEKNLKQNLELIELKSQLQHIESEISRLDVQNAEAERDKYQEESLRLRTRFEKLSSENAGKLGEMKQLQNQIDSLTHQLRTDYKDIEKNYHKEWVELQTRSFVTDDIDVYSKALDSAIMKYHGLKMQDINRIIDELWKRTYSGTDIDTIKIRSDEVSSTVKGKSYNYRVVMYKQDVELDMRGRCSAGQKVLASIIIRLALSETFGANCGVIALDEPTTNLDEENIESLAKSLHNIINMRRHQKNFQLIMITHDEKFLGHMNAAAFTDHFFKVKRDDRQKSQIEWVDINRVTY

Rad50 = target: T3, Rad50 (S. cerevisiae, UniProt P12753 1-1312); assay: as above
T3 construct: Rad50, S. cerevisiae, subunit of the MRX complex; also called wild-type Rad50; purified Rad50; source: overexpressed in yeast, purified
T3 sequence (looked up): T2 sequence (looked up) with M1269V

- binding result [1]: binds
B1: (His)6-tagged Rif2 (natural protein, S. cerevisiae, UniProt Q06208 1-395, looked up)
chain: MEHVDSDFAPIRRSKKVVDSDKIVKAISDDLEQKNFTVLRKLNLVPIKKSVSSPKVCKPSPVKERVDHVFYQKFKSMALQELGTNYLSISYVPSLSKFLSKNLRSMKNCIVFFDKVEHIHQYAGIDRAVSETLSLVDINVVIIEMNDYLMKEGIQSSKSKECIESMGQASYSGQLDFEASEKPSNHTSDLMMMVMRKINNDESIDHIVYFKFEQLDKLSTSTIIEPSKLTEFINVLSVLEKSNNIAFKVLIYSNNVSISSLLSTSLKKKLNTKYTVFEMPILTCAQEQEYLKKMIKFTFDSGSKLLQSYNSLVTCQLNNKESNLAIFFEFLKVFPHPFTYLFNAYTEIIVQSRTFDELLDKIRNRLTIKNYPHSAYNFKKNQRLPLKLTRKVHDR
notes: Rif2, S. cerevisiae; expressed from pET-Rif2 (gift from K. Sugimoto); No removal of the tag is described; the final preparation is called (His)6-Rif2; also called (His)6-Rif2; purified Rif2; source: E. coli BL21 Rosetta, purified (Ni-NTA, SP Sepharose, Mono S, Superdex 200)

- binding result (Rad50-V1269M): binds
B2: Mre11 (natural protein, S. cerevisiae, UniProt P32829 1-692, looked up)
chain: MDYPDPDTIRILITTDNHVGYNENDPITGDDSWKTFHEVMMLAKNNNVDMVVQSGDLFHVNKPSKKSLYQVLKTLRLCCMGDKPCELELLSDPSQVFHYDEFTNVNYEDPNFNISIPVFGISGNHDDASGDSLLCPMDILHATGLINHFGKVIESDKIKVVPLLFQKGSTKLALYGLAAVRDERLFRTFKDGGVTFEVPTMREGEWFNLMCVHQNHTGHTNTAFLPEQFLPDFLDMVIWGHEHECIPNLVHNPIKNFDVLQPGSSVATSLCEAEAQPKYVFILDIKYGEAPKMTPIPLETIRTFKMKSISLQDVPHLRPHDKDATSKYLIEQVEEMIRDANEETKQKLADDGEGDMVAELPKPLIRLRVDYSAPSNTQSPIDYQVENPRRFSNRFVGRVANGNNVVQFYKKRSPVTRSKKSGINGTSISDRDVEKLFSESGGELEVQTLVNDLLNKMQLSLLPEVGLNEAVKKFVDKDEKTALKEFISHEISNEVGILSTNEEFLRTDDAEEMKALIKQVKRANSVRPTPPKENDETNFAFNGNGLDSFRSSNREVRTGSPDITQSHVDNESRITHISQAESSKPTSKPKRVRTATKKKIPAFSDSTVISDAENELGDNNDAQDDVDIDENDIIMVSTDEEDASYGLLNGRKTKTKTRPAASTKTASRRGKGRASRTPKTDILGSLLAKKRK
notes: Mre11, S. cerevisiae, subunit of the MRX complex; also called purified Mre11; source: overexpressed in yeast, purified

- binding result (Rad50-V1269M): binds
- binding result (Rad50): binds
B3: Xrs2 (natural protein, S. cerevisiae, UniProt P33301 1-854, looked up)
chain: MWVVRYQNTLEDGSISFISCCLQAFKTYSIGRSSKNPLIIKNDKSISRQHITFKWEINNSSDLKHSSLCLVNKGKLTSLNKKFMKVGETFTINASDVLKSTIIELGTTPIRIEFEWINEVWNIPPHLTQFRTMLSEYGISTEISINDIPANLMISDYPKSEDNSIRELYALVSTIPMKKSRFLMELCNTLLPTSKTNLKFDEMWNDMISNPEYNVFDFDPNILLSKFMRLNNIRVLTTIKSEPRLSSLLRTFNINLFAFDNIDSLYKYVDSLEASTEYLILTTTDKKENGKILCTIKTMLTSIIDGTLSAVINMKGASSRTLDNGKFDQISEGMSTILKTSRAPEVEASPVVSKKRKLNRRRVLPLDSLDFFAGGLSTKTLSENRSLTDAKRLNCGAESKTVISSPNIAEADEKHAPFLQNALKPTEDIGKKSGHSSPGAIIVSSPNLGTVNTSEDSLDKSLQSHKLPQPSLPEVAGIGSQTISSNSADYETAAVNSMDDAEVTKNFRVNHHQNIEQPSKNIRKLSNYSREISSPLQENCKSPVKELSIKEKSGTPHAFVEAIQETKNREVKRVKSTIVELKDEELSEEAINQLKNLAIVEPSNNLLRKSFDSEGNKTSRTTEKWENSLMEPEWHKRKNFKTFVKVRPKSKAHKEEGKNNTQSSDFIRNAAFLITRNYVPLKKYSKKDTTTKWGTEENEDMFALTEMERFGSNTFMSDNINSNTIQKRSQALNRFTNEDSSNEGEEDSFSFSRCSGTAASVQPLKNKIFITDEDDLGDIDDKSDRLNHRENNRNLFVVKEMNLRPNLSEECSKQSRHSRSATSRSRGSFGASNNGDGDDDDDDGPKFTFKRRKG
notes: Xrs2, S. cerevisiae, subunit of the MRX complex; also called purified Xrs2; source: overexpressed in yeast, purified
